Assay results reported in paper doi:10.1101/2022.06.05.494914.

Target: PTH 1 receptor (PTH1R), his-tagged (UniProt Q03431)
Experiment: BLI

Chain of UniProt Q03431 (Q03431 27-593): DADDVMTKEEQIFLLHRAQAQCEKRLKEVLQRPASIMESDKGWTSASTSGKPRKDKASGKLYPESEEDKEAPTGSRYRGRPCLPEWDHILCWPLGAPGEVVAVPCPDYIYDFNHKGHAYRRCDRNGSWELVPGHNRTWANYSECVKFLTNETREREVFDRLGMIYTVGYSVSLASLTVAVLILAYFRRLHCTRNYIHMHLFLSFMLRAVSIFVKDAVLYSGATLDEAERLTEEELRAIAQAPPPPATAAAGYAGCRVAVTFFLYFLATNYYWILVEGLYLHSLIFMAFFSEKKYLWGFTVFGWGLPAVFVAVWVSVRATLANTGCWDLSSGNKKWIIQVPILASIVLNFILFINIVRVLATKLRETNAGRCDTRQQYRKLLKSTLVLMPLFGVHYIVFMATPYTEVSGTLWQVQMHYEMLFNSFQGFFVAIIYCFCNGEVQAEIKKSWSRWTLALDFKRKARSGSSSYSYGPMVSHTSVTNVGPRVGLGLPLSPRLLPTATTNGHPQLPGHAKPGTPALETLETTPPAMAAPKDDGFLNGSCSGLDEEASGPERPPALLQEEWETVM

Kd	Substance
2300 nM	PTH-Fc fusion protein
2310 nM	Parathyroid Hormone PTH (1-34) (peptide)
